Data taken from patent publication US20230174641A1 (H LUNDBECK A S, published 2023).
Ends that are not written are not given here.

Tests used:
[1] = molecular target: T1, human ACTH 1-39 (human); experiment: cell-based or functional assay
T1 peptide: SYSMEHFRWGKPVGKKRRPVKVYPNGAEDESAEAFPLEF

[2] = molecular target: T1, human ACTH 1-39; experiment: cell-based or functional assay
[3] = molecular target: T1, human ACTH 1-39; experiment: cell-based or functional assay
[4] = molecular target: T1, human ACTH 1-39; experiment: cell-based or functional assay
[5] = molecular target: T1, human ACTH 1-39; experiment: SPR ProteOn, antibody immobilised
Method: (§1) Antibody was immobilized to the surface of general amine coupling (GLC or GLM) Chips (Bio-Rad). […] At the chosen concentrations of antigen (ranging from 454 ng/ml to 5.6 ng/ml) association times of 200 seconds and dissociation times of 30-200 minutes were used with the ProteOnTM Manager Software (v3.1.0.6, Bio-Rad) to group and fit data using a 1:1 Langmuir binding model. Surfaces were regenerated between analyte queries using 10 mM glycine at pH 2.0. Data repeated across a single density was averaged and a single KD and standard propagation of error calculated for each antibody.

[6] = molecular target: T2, human ACTH 18-39 (human); experiment: SPR ProteOn, antibody immobilised
T2 construct: also called CLIP; CLIP (ACTH 18-39)
T2 peptide: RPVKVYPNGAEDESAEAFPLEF
Method: as §1

[7] = molecular target: T3, N-term biotinylated human ACTH 1-39 (human, N-terminal biotin); experiment: ELISA, biotin-ACTH 1-39 on neutravidin plate
T3 construct: also called huACTH 1-39
T3 peptide: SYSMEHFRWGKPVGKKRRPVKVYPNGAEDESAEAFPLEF
Method: All incubations were done at room temperature. […] The plates were then blocked using a blocking solution (PBS, 0.5% fish skin gelatin, 0.05% Tween-20) for approximately one hour. The blocking solution was then removed and the plates were then incubated with a dilution series of the antibody being tested for approximately one hour. At the end of this incubation, the plate was washed three times with wash buffer and further incubated with a secondary antibody containing solution (Peroxidase conjugated AffmiPure™ F(ab′)₂ fragment goat anti-human IgG, Fc fragment specific (Jackson Immunoresearch) for approximately 45 minutes and washed three times. Next a substrate solution (TMB peroxidase substrate, BioFx®, SurModics, Eden Prairie, Minn.) was added and incubated for 3 to 5 minutes in the dark. The reaction was stopped by addition of 0.5 M HCl and the plate was read at 450 nm in a plate-reader.

[8] = molecular target: T4, human ACTH 1-13 (human, ends and bridges not checked); experiment: SPR ProteOn, antibody immobilised; SPR, antibody on the chip, alpha-MSH alone (Table 6)
T4 construct: also called human alpha-MSH (ACTH 1-13); alpha-MSH
T4 peptide: SYSMEHFRWGKPV
Method: as §1

[9] = molecular target: T4, human ACTH 1-13; experiment: SPR ProteOn, antibody immobilised
Method: as §1

[10] = molecular target: T2, human ACTH 18-39; experiment: SPR ProteOn, antibody immobilised; SPR, antibody on the chip, CLIP alone (Table 5)
Method: as §1

Binder	MC2R IC50 [1] [nM]	MC1R IC50 [2] [nM]	MC3R IC50 [3] [nM]	MC4R IC50 [3] [nM]	MC5R IC50 [3] [nM]	Y1 Cells IC50 [4] [nM]	Kd [5] [nM]	koff [5] [s⁻¹]	kon [5] [M⁻¹ s⁻¹]	koff [6] [s⁻¹]	EC50 [7] [nM]	Kd [8] [nM]	koff [8] [s⁻¹]	kon [8] [M⁻¹ s⁻¹]	koff [9] [s⁻¹]	Kd [6] [nM]	kon [6] [M⁻¹ s⁻¹]	Kd [10] [nM]	koff [10] [s⁻¹]	kon [10] [M⁻¹ s⁻¹]
Ab7 (antibody, human IgG1, kappa, N297A, V domains shown, rabbit/human chimeric antibody, made in HEK-293) VH: QSVEESGGRLVTPGTPLTLTCTVSGFSLSSYAMSWVRQAPGEGLEWIGIISDSGSTYYASWAKGRFTISKTSTTVDLRITSPTTEDTATYFCAREPEYGYDDYGDWVSDLWGQGTLVTVSS VL: DIVMTQTPASVEAAVGGTVTIKCQASQSISDYLSWYQQKPGQPPKLLIYRASTLASGVPSRFKGSGSGTQFTLTISDLECADAATYYCQSYYYSSSITYRNAFGGGTEVVVKR	0.09	1.29	64.2	49.7	1100	2.49	0.037	3.7e-05	1e+06	> 0.1	2.24	54	0.013	~240000						
Ab9 (antibody, human IgG1, kappa, N297A, V domains shown, rabbit/human chimeric antibody, made in HEK-293) VH: QSVEESGGRLVTPGTPLTLTCTVSGFSLNSYAMSWVRQAPGEGLEWIGIISDSGRTYYASWAKGRFTISKTSTTVDLKITSPTTEDTATYFCAREPEYGYDDYGDWVSDLWGPGTLVTVSS VL: DVVMTQTPASVEAAVGGTVTIKCQASQSISSYLSWYQQKPGQPPKLLIYRASTLASGVPSRFKGSGSGTQFTLTISDLECADAATYYCQSYYYSSSITYRNAFGGGTEVVVKR	0.12					3.47				> 0.1	2.05	63	0.009	~140000						
Ab1 (antibody, human IgG1, kappa, N297A, V domains shown, rabbit/human chimeric antibody, made in HEK-293) VH: QSVKESGGRLVTPGTPLTLTCTVSGFSLSNYDMIWVRQAPGKGLESIGMIYDDGDTYYASWAKGRFTISKTSTTVDLKIISPTTEDTATYFCVKGVSNHWGPGTLVTVSS VL: DVVMTQTPASVEAAVGGTVTIKCQASQSISSYLAWYQQKPGQPPKLLIYSASTLASGVPSRFKGRGSGTEFTLTISDLECADAATYYCQSYDGSSGSSYGVGFGGGTEVVVKR	0.14	2.38	101	56.4	1100	2.36	0.19	0.00019		0.092	0.48				> 0.1	150	620000			
Ab12 (antibody, human IgG1, kappa, N297A, V domains shown, rabbit/human chimeric antibody, made in HEK-293) VH: QSVEESGGRLVTPGTPLTLTCTVSGSSLSDYDMIWVRQAPGKGLESIGIIYDDGDTYYATWAKGRFTISKTSTTVDLRIISPTTEDTATYFCVKGVSNMWGPGTLVTVSS VL: DVVMTQTPSSVSAAVGGTVTIKCQASQSIGSSLAWYQQKPGQRPKLLIYAASTLASGVPSRFKGSGSGTEFTLTISDLECADAATYYCQSYDGSSSSSYGVGFGGGTEVVVKR	0.05	1.66				2.68					0.76				> 0.1			27	0.024	890000
Ab10 (antibody, human IgG1, kappa, N297A, V domains shown, rabbit/human chimeric antibody, made in HEK-293) VH: QSVEESGGRLVTPGTPLTLTCTVSGFSLSSADMIWVRQAPGKGLESIGMIYDDGDTYYATWAKGRFTISKTSTTVDLKIISPTTEDTATYFCVKGVSSVWGQGTLVTVSS VL: DVVMTQTPASVEAAVGGTVTINCQASENIYRSLAWYQQKPGQPPKLLIYSASTLASGVPSRFKGSGSGTEFTLTISDLECADAATYYCQSYDGSSSSSYGVGFGGGTEVVVKR	0.16	2.14	133	66.3	5400	5.98	0.11	0.00011	1e+06		1.57				> 0.1			250	0.27	1.1e+06
Ab11 (antibody, human IgG1, kappa, N297A, V domains shown, rabbit/human chimeric antibody, made in HEK-293) VH: QSLEESGGRLVTPGTSLTLTCTASGFSLSAYDILWVRQAPGKGLESIGMMYDDGDTYYATWAKGRFIISRTSTTMDLKIISPTTEDTATYFCVKGVSNIWGQGTLVTVSS VL: DIVMTQIPASVEAAVGGTVTIKCQASQSIDSSLAWYQQKPGQPPKLLIYSASTLASGVPSRFKGSGSGTEFTLTIGDLECADAATYYCQSYDGSSSSYYGIGFGGGTEVVVKR	0.03	1.49	108	49.4	4200	1.53	0.04	4e-05	1e+06						> 0.1			54	0.086	1.6e+06
Ab4 (antibody, human IgG1, kappa, N297A, V domains shown, rabbit/human chimeric antibody, made in HEK-293) VH: QSVEESGGRLVTPGTPLTLTYTVSGFSLSKHDMIWVRQAPGKGLESIGIIYDDGDTYYANWAKGRFTISKTSTTVDLKIISPTTEDTATYFCVKGVSNIWGPGTLVTVSS VL: DVVMTQTPASVEAAVGGTVTIKCRASQSISVYLAWYQQKAGQPPKLLIYQASKLASGVPSRFKGSGSGTEFTLTISDLECADAATYYCQSYDGSSSSSYGVGFGGGTEVVVKR	0.46	5.73	113	65.8	1300	17.2	0.27	0.00027	1e+06	0.19	0.39				> 0.1	270	710000			
